Earlier results in article PMC7228847.

Target: SEMA6A ECD (Mus musculus) (UniProt O35464)
Sequence (O35464 19-649): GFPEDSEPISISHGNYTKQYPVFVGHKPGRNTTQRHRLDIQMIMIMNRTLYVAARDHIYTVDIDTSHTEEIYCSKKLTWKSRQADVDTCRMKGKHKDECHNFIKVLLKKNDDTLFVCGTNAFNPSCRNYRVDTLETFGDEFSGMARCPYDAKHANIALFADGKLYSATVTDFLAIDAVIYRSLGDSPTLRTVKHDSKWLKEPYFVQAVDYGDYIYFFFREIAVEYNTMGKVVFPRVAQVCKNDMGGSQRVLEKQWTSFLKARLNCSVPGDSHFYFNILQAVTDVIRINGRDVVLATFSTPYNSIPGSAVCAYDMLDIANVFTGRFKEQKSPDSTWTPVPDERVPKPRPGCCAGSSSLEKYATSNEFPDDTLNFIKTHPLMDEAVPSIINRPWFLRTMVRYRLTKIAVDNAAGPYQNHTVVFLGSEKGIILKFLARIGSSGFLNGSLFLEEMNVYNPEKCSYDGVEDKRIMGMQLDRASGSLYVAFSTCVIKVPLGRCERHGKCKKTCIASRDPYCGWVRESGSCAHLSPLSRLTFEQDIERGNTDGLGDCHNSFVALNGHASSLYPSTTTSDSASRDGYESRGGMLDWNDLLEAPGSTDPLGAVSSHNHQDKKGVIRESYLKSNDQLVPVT

Sequence of PlexinA2 (P70207 35-1237): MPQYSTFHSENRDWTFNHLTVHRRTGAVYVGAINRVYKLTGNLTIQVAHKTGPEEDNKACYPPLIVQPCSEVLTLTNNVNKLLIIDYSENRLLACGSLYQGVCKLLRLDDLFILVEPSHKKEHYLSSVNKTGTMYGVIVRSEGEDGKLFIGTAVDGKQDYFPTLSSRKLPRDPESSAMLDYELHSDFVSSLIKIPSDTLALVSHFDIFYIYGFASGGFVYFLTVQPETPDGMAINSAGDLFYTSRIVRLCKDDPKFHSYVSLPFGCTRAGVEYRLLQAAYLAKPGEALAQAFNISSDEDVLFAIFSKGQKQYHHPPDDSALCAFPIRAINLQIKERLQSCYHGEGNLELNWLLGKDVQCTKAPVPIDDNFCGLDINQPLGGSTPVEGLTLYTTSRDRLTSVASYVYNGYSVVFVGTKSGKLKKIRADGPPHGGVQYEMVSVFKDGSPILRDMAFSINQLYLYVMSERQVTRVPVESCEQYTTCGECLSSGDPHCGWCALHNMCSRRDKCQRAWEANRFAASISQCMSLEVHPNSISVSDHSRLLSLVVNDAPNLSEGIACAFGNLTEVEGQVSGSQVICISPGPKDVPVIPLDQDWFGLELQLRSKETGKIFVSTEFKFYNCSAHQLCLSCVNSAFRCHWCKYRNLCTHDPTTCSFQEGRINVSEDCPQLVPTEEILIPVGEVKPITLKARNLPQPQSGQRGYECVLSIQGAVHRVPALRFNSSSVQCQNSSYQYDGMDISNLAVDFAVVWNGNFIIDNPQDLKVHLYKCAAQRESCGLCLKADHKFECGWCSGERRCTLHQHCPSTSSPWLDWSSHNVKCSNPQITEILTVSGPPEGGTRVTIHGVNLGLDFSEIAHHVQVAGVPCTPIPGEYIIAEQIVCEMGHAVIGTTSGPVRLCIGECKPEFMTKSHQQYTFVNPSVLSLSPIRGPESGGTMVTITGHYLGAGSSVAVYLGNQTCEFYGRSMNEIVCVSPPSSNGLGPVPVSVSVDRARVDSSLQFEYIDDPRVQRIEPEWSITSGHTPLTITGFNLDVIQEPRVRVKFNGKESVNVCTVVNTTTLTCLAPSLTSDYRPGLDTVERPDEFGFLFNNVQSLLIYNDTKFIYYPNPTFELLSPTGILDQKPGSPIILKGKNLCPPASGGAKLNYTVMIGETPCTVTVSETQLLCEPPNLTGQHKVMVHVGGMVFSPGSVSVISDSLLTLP

In the case of PlexinA2 (from UniProt P70207), the Kd is given as 2300 nM.
